Changes are numbered by the printed parent chain.
T1: recombinant rat sclerostin (rat, UniProt Q99P67 24-213, limits assumed)
T1 sequence (looked up): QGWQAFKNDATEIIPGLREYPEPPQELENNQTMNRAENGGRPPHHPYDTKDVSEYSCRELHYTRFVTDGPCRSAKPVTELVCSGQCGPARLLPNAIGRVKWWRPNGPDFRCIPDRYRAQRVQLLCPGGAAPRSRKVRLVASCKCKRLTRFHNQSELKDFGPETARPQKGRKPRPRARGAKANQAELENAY

T2: recombinant mouse sclerostin (mouse, UniProt Q99P68 24-211)
T2 construct: also called ms sclerostin; murine sclerostin
T2 sequence (looked up): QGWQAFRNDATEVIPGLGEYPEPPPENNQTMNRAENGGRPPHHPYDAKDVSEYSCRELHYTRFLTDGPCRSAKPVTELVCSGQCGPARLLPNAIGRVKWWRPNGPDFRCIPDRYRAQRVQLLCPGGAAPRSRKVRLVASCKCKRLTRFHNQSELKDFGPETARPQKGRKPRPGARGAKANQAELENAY

T3: recombinant human sclerostin (human, UniProt Q9BQB4 24-213)
T3 construct: biotinylated in the ELISAs; also called hu sclerostin; hu scl
T3 sequence: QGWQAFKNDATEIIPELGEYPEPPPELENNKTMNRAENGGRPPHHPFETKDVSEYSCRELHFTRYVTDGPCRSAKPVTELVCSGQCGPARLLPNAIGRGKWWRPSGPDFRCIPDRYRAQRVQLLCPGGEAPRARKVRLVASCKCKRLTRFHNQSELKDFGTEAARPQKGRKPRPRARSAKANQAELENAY

B1: MSL10-AM9 (antibody, V domains shown)
VH: EVQLVESGGGLVQPGRSLRLSCAASGFTFDDYALHWVRQAPGKGLEWVSGIGWDDDMIDYADSVKGRFTISRDNAKNSLYLQMNSLRVEDTALYYCAGNNRGYGGLDVWGQGTTVTVSS
VL: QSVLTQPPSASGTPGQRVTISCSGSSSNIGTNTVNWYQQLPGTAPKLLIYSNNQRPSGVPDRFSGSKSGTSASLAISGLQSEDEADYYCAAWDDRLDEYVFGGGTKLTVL
B2: MSL10-AM3 (antibody, V domains shown)
VH: B1 VH with D55E
VL: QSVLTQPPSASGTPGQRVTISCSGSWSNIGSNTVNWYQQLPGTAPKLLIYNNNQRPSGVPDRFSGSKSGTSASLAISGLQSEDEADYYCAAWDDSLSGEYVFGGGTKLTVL
B3: MSL10-AM1 (antibody, V domains shown)
VH: B1 VH with G52N, D54E, D55G, M57D, N100S
VL: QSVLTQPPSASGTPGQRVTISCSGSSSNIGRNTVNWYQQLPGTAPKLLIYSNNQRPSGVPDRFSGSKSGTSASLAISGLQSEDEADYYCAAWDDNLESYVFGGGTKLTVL
B4: MSL10-AM10 (antibody, V domains shown)
VH: B1 VH with D30S, G52S, D54Y, D55G, M57D, N100I
VL: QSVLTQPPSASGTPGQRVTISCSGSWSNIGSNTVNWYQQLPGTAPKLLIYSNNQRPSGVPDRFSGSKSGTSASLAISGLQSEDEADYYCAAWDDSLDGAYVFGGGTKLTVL
B5: MSL10-AM11 (antibody, V domains shown)
VH: B1 VH with G52S, D54H, D55G, M57F
VL: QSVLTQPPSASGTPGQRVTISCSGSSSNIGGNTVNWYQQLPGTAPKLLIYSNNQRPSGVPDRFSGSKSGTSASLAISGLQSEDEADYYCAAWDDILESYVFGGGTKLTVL
B6: MSL10-AM8 (antibody, V domains shown)
VH: B1 VH with D30E, D55R, M57F, N100K, R101I
VL: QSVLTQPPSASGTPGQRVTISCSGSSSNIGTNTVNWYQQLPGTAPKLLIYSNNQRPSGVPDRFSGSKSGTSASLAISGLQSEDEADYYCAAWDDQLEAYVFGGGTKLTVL
B7: MSL10-AM4 (antibody, V domains shown)
VH: B1 VH with D30E
VL: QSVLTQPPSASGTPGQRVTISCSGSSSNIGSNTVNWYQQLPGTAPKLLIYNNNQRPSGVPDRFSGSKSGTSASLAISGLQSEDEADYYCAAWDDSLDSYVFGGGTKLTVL
B8: MSL10-AM6 (antibody, V domains shown)
VH: B1 VH with D31Q, G52N, D55G, M57Y, N100I
VL: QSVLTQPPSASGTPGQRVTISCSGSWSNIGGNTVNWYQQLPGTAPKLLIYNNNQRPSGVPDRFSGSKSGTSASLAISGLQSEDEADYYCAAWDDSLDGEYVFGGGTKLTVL
B9: MSL10-AM7 (antibody, V domains shown)
VH: B1 VH with D30E, D54N, M57E, A75S
VL: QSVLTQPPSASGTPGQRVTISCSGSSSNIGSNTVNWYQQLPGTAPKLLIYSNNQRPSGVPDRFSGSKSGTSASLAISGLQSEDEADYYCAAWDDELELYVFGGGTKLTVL
B10: AE10-6-AM3 (antibody, V domains shown)
VH: EVQLVQSGAEVKKPGASVKVSCKVSGYTLTELSMHWVRQAPGKGLEWMGGFDPEDGETIYAQKFQGRVTMTEDTSTDTAYMELSSLRSEDTAVYYCATDSAGYWYKFFQHWGQGTLVTVSS
VL: QAVVTQEPSLTVSPGGTVTLTCGSSTGAVTIDHYPYWFQQKPGQAPRTLISDTDDKHSWTPARFSGSLLGGKAALTLSGAQPEDEAEYYCLLDYGGTFVFGGGTKLTVL
notes: converted into IgG
B11: AE10-6-AM7 (antibody, V domains shown)
VH: B10 VH with S100T, A101V, Y105E
VL: B10 VL with A28T, T97R
notes: converted into IgG; also called rHC + LC S4 clone 131
B12: AE10-6-AM5 (antibody, V domains shown)
VH: B10 VH with T30S, D55G, S100A, A101G
VL: B10 VL with A28T, D93F, F98V
notes: converted into IgG
B13: AE10-6-AM6 (antibody, V domains shown)
VH: B10 VH with T30S, D55G, S100T, A101E, Y105E
VL: B10 VL
notes: converted into IgG; also called rHC + LC S4 clone 119
B14: AE10-6-AM2 (antibody, V domains shown)
VH: B10 VH with D55A, S100G, A101E, G102L
VL: B10 VL with D32W, D54N, T97S
notes: converted into IgG; also called rHC + LC S4 clone 102
B15: AE10-6-AM8 (antibody, V domains shown)
VH: B10 VH with T30S, M34I
VL: B10 VL with T97S
notes: converted into IgG

What follows are binders tested against T1, recombinant rat sclerostin (assay: SPR).

Row | Binder | binding result
1 | B1 | no binding
2 | B2 | no binding
3 | B3 | no binding
4 | B4 | no binding
5 | B5 | no binding
6 | B6 | no binding
7 | B7 | no binding
8 | B8 | no binding
9 | B9 | no binding

What follows are binders tested against T2, recombinant mouse sclerostin (assay: SPR).

Row | Binder | binding result
10 | B1 | no binding
11 | B2 | no binding
12 | B3 | no binding
13 | B4 | no binding
14 | B5 | no binding
15 | B6 | no binding
16 | B7 | no binding
17 | B8 | no binding
18 | B9 | no binding

Each binder was assayed against T4, recombinant cynomolgus monkey sclerostin (cynomolgus monkey) (assay: SPR).
T4 construct: also called cyno sclerostin; Cyno sclerostin
Protocol: (§1) Approximately 10,000 RU (or 3000 RU when CM3 chip was used) of goat anti-mouse or anti-human IgG (Fcγ) fragment specific polyclonal antibody (Pierce Biotechnology Inc, Rockford, Ill.) diluted in 10 mM sodium acetate (pH 4.5) was directly immobilized across a CM5 (or CM3) research grade biosensor chip using a standard amine coupling kit according to manufacturer's instructions and procedures at 15 μg/ml. Unreacted moieties on the biosensor surface were blocked with ethanolamine. Modified carboxymethyl dextran surface in flowcells 2, 3 and 4 were used as a reaction surface. Modified carboxymethyl dextran in flow cell 1 was used as the reference surface. Biaevaluation T100 software version 2.0.2, GE Healthcare Life Sciences was used to simultaneously fit association and dissociation phases of all injections (using 1:1 fit analysis with local Rmax). Purified antibodies were diluted in running buffer for capture across goat anti-mouse or anti-human IgG specific reaction surfaces. Antibodies to be captured as a ligand (1 μg/ml) were injected over reaction matrices at a flow rate of 10 μl/minute. The association and dissociation rate constants, kon (unit M-1 s-1) and koff (unit s-1) were determined under a continuous flow rate of 50 μl/minute. […] At the end of each cycle the surfaces were regenerated with 10 s injection of 50 mM NaOH or/and by 10 s injection of 10 mM Glycine pH1.5 at a flow rate of 100 μl/min. Instrument appropriate Biaevaluation software, GE Healthcare Life Sciences was used to simultaneously fit association and dissociation constants as well as KD (using 1:1 global fit analysis with local Rₘₐₓ). Binding was recorded as a function of time and kinetic rate constants are calculated. In this assay, on-rates as fast as 10⁷ M⁻¹ s⁻¹ and off-rates as slow as 10⁻⁶ s⁻¹ can be measured.

Row | Binder | Kd [nM] | koff [s⁻¹] | kon [M⁻¹ s⁻¹]
19 | B2 | 1.3 | 0.0001 | 77000
20 | B3 | 0.42 | 2.3e-05 | 54000
21 | B7 | 5.6 | 0.00073 | 130000

Each binder was assayed against T3, recombinant human sclerostin (assay: SPR).
Protocol: as §1

Row | Binder | Kd [nM] | koff [s⁻¹] | kon [M⁻¹ s⁻¹]
22 | B1 | 0.054 | 5.2e-06 | 96000
23 | B2 | 0.9 | 7.6e-05 | 84000
24 | B3 | 0.3 | 1.6e-05 | 52000
25 | B4 | 0.29 | 3.9e-05 | 130000
26 | B5 | 0.85 | 7.4e-05 | 88000
27 | B6 | 0.73 | 7.7e-05 | 110000
28 | B7 | 5.3 | 0.00073 | 140000
29 | B8 | 3.4 | 0.00055 | 170000
30 | B9 | 0.42 | 7.2e-05 | 170000

Target: T1, recombinant rat sclerostin
Experiment: SPR
Remark: another data set of the same source
Protocol: as §1, with “The binding of antibodies or anti-sclerostin-TNF DVD to purified recombinant human, cynomolgus monkey (cyno), rat and mouse sclerostin and TNFα was determined by surface plasmon resonance-based measurements with a Biacore T100 or T200 instruments (GE Healthcare Life Sciences, Piscataway, N.J., USA) using running HBS-EP+ (10 mM HEPES [pH 7.4], 150 mM NaCl, 3 mM EDTA, and 0.005% surfactant P20) containing additional 150 mM NaCl, and/or 10 mg/ml carboxymethyl dextran, 0.1 mg/ml BSA at 25° C. All chemicals were obtained from GE Healthcare Life Sciences, Piscataway, N.J., USA or otherwise from a different source as described in the text. Approximately” for “Approximately”, “μl/min.” for “μl/min. Instrument appropriate Biaevaluation software, GE Healthcare Life Sciences was used to simultaneously fit association and dissociation constants as well as KD (using 1:1 global fit analysis with local Rₘₐₓ). Binding was recorded as a function of time and kinetic rate constants are calculated. In this assay, on-rates as fast as 10⁷ M⁻¹ s⁻¹ and off-rates as slow as 10⁻⁶ s⁻¹ can be measured.”

Row | Binder | Kd [nM] | koff [s⁻¹] | kon [M⁻¹ s⁻¹]
31 | B10 | 0.01 | 1.9e-05 | 1.9e+06
32 | B11 | 0.026 | 4.6e-05 | 1.8e+06
33 | B12 | 0.056 | 7.5e-05 | 1.3e+06
34 | B13 | 0.098 | 0.00018 | 1.9e+06
35 | B14 | 0.12 | 0.00088 | 7.6e+06
36 | B15 | 0.034 | 5.9e-05 | 1.8e+06

Target: T4, recombinant cynomolgus monkey sclerostin
Experiment: SPR
Remark: another data set of the same source
Protocol: as §1, with “The binding of antibodies or anti-sclerostin-TNF DVD to purified recombinant human, cynomolgus monkey (cyno), rat and mouse sclerostin and TNFα was determined by surface plasmon resonance-based measurements with a Biacore T100 or T200 instruments (GE Healthcare Life Sciences, Piscataway, N.J., USA) using running HBS-EP+ (10 mM HEPES [pH 7.4], 150 mM NaCl, 3 mM EDTA, and 0.005% surfactant P20) containing additional 150 mM NaCl, and/or 10 mg/ml carboxymethyl dextran, 0.1 mg/ml BSA at 25° C. All chemicals were obtained from GE Healthcare Life Sciences, Piscataway, N.J., USA or otherwise from a different source as described in the text. Approximately” for “Approximately”, “μl/min.” for “μl/min. Instrument appropriate Biaevaluation software, GE Healthcare Life Sciences was used to simultaneously fit association and dissociation constants as well as KD (using 1:1 global fit analysis with local Rₘₐₓ). Binding was recorded as a function of time and kinetic rate constants are calculated. In this assay, on-rates as fast as 10⁷ M⁻¹ s⁻¹ and off-rates as slow as 10⁻⁶ s⁻¹ can be measured.”

Row | Binder | Kd [pM] | koff [s⁻¹] | kon [M⁻¹ s⁻¹]
37 | B10 | 0.24 | 1.6e-06 | 6.9e+06
38 | B11 | < 0.14 | < 1e-07 | 7e+06
39 | B12 | 1.5 | 7.6e-06 | 5.2e+06
40 | B13 | 0.88 | 7e-06 | 7.9e+06
41 | B14 | 7.1 | 2.6e-05 | 3.6e+06
42 | B15 | 0.39 | 3e-06 | 7.7e+06

Target: T2, recombinant mouse sclerostin
Experiment: SPR
Remark: another data set of the same source
Protocol: as §1, with “The binding of antibodies or anti-sclerostin-TNF DVD to purified recombinant human, cynomolgus monkey (cyno), rat and mouse sclerostin and TNFα was determined by surface plasmon resonance-based measurements with a Biacore T100 or T200 instruments (GE Healthcare Life Sciences, Piscataway, N.J., USA) using running HBS-EP+ (10 mM HEPES [pH 7.4], 150 mM NaCl, 3 mM EDTA, and 0.005% surfactant P20) containing additional 150 mM NaCl, and/or 10 mg/ml carboxymethyl dextran, 0.1 mg/ml BSA at 25° C. All chemicals were obtained from GE Healthcare Life Sciences, Piscataway, N.J., USA or otherwise from a different source as described in the text. Approximately” for “Approximately”, “μl/min.” for “μl/min. Instrument appropriate Biaevaluation software, GE Healthcare Life Sciences was used to simultaneously fit association and dissociation constants as well as KD (using 1:1 global fit analysis with local Rₘₐₓ). Binding was recorded as a function of time and kinetic rate constants are calculated. In this assay, on-rates as fast as 10⁷ M⁻¹ s⁻¹ and off-rates as slow as 10⁻⁶ s⁻¹ can be measured.”

Row | Binder | Kd [nM] | koff [s⁻¹] | kon [M⁻¹ s⁻¹]
43 | B10 | 0.0055 | 5.5e-05 | 1e+07
44 | B11 | 0.0093 | 0.00012 | 1.3e+07
45 | B12 | 0.016 | 0.00011 | 7e+06
46 | B13 | 0.027 | 0.00087 | 3.2e+07
47 | B14 | 0.094 | 0.002 | 2.1e+07
48 | B15 | 0.0074 | 8.2e-05 | 1.1e+07

Target: T3, recombinant human sclerostin
Experiment: SPR
Remark: another data set of the same source
Protocol: as §1, with “The binding of antibodies or anti-sclerostin-TNF DVD to purified recombinant human, cynomolgus monkey (cyno), rat and mouse sclerostin and TNFα was determined by surface plasmon resonance-based measurements with a Biacore T100 or T200 instruments (GE Healthcare Life Sciences, Piscataway, N.J., USA) using running HBS-EP+ (10 mM HEPES [pH 7.4], 150 mM NaCl, 3 mM EDTA, and 0.005% surfactant P20) containing additional 150 mM NaCl, and/or 10 mg/ml carboxymethyl dextran, 0.1 mg/ml BSA at 25° C. All chemicals were obtained from GE Healthcare Life Sciences, Piscataway, N.J., USA or otherwise from a different source as described in the text. Approximately” for “Approximately”, “μl/min.” for “μl/min. Instrument appropriate Biaevaluation software, GE Healthcare Life Sciences was used to simultaneously fit association and dissociation constants as well as KD (using 1:1 global fit analysis with local Rₘₐₓ). Binding was recorded as a function of time and kinetic rate constants are calculated. In this assay, on-rates as fast as 10⁷ M⁻¹ s⁻¹ and off-rates as slow as 10⁻⁶ s⁻¹ can be measured.”

Row | Binder | Kd [pM] | koff [s⁻¹] | kon [M⁻¹ s⁻¹]
49 | B10 | 0.54 | 3.8e-06 | 7e+06
50 | B11 | 0.3 | 2.1e-06 | 7.1e+06
51 | B12 | 3 | 1.3e-05 | 4.3e+06
52 | B13 | 1.3 | 1.2e-05 | 9.1e+06
53 | B14 | 8.1 | 2.7e-05 | 3.4e+06
54 | B15 | 1.3 | 9.7e-06 | 7.4e+06

From US20150266977A1 (AbbVie / Abbott, published 2015)
